Reference: PMC10397247
Where two headings read alike, the source gives them in different places.

Legend:
Experiment in all cases: two-hybrid library CCmax;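 also: natural log of median RNA to DNA barcode read ratio; higher means stronger binding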
[1] = target: T1, P6-AA-12HAA-D; details: mean of both orientations
T1 chain: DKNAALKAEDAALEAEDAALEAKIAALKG

[2] = target: T2, P6-AA-12HAA-E; details: mean of both orientations
T2 chain: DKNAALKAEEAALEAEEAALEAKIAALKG

[3] = target: T3, P6-AA-12HAA-H; details: mean of both orientations
T3 chain: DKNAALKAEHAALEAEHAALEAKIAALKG

[4] = target: T4, P6-AA-12HAA-K
T4 chain: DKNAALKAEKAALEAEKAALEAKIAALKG

[5] = target: T5, P6-AA-12HAA-L; details: mean of both orientations
T5 chain: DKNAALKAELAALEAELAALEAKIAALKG

[6] = target: T6, P6-AA-12HAA-R; details: mean of both orientations
T6 chain: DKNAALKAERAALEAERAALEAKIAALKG

[7] = target: T7, P6-AA-12HAA-S
T7 chain: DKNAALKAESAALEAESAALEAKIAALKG

[8] = target: T8, P6-AA-12HAA-T
T8 chain: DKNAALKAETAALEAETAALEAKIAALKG

[9] = target: T9, P6-AA-12HAA-V; details: mean of both orientations
T9 chain: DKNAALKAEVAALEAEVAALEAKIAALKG

[10] = target: T10, P6-AA-12HAA-Y
T10 chain: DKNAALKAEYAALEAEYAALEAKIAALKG

[11] = target: T11, P6-AA-1HAA-N; details: mean of both orientations
T11 chain: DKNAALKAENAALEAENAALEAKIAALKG

[12] = target: T12, P6-AA-1HAA-D; details: mean of both orientations
T12 chain: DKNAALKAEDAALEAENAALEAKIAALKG

[13] = target: T13, P6-AA-1HAA-E; details: mean of both orientations
T13 chain: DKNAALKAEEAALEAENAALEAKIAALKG

[14] = target: T14, P6-AA-1HAA-H; details: mean of both orientations
T14 chain: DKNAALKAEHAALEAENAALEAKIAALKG

[15] = target: T15, P6-AA-1HAA-K; details: mean of both orientations
T15 chain: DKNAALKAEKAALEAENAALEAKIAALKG

[16] = target: T16, P6-AA-1HAA-L; details: mean of both orientations
T16 chain: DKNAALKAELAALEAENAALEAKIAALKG

[17] = target: T17, P6-AA-1HAA-R; details: mean of both orientations
T17 chain: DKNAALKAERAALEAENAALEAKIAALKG

[18] = target: T18, P6-AA-1HAA-S; details: mean of both orientations
T18 chain: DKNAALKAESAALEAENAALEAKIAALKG

[19] = target: T19, P6-AA-1HAA-T; details: mean of both orientations
T19 chain: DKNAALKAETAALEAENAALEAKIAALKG

[20] = target: T20, P6-AA-1HAA-V
T20 chain: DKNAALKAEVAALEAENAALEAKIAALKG

[21] = target: T21, P6-AA-1HAA-Y
T21 chain: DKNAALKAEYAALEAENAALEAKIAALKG

DENAALEAKYAALKAKYAALKAEIAALEG [P5-AA-12HAA-Y] showed an interaction score [1] of -1.3, an interaction score [2] of -1.65 and an interaction score [3] of -1.67. The interaction score ([4]; mean of both orientations) was -1.55, the interaction score [5] was 2.06 and the interaction score [6] was -1.41. For the same binder, the interaction score ([7]; mean of both orientations) was -1.4, the interaction score [8] was -0.448 and the interaction score [9] was 2.38. The interaction score ([10]; mean of both orientations) was 1.48 and the interaction score [11] was -0.0879.

With DENAALEAKLAALKAKLAALKAEIAALEG [P5-AA-12HAA-L] the interaction score [1] was -1.57, the interaction score [2] was 0.451 and the interaction score [3] was -0.352. It also gave an interaction score ([4]; mean of both orientations) of 0.645, an interaction score [5] of 1.74 and an interaction score [6] of -0.243. For the same binder, the interaction score ([7]; mean of both orientations) was -0.666, the interaction score ([8]; mean of both orientations) was 1.66 and the interaction score [9] was 2.39. For the same binder, the interaction score [10] was 2.26 and the interaction score [11] was -0.665.

For DENAALEAKDAALKAKDAALKAEIAALEG [P5-AA-12HAA-D], the interaction score [1] was -1.47, the interaction score [2] was -1.97 and the interaction score [3] was -1.57. The interaction score ([4]; mean of both orientations) was -1.61, the interaction score [5] was -1.56 and the interaction score [6] was -1.55. For the same binder, the interaction score ([7]; mean of both orientations) was -1.67, the interaction score ([8]; mean of both orientations) was -1.41 and the interaction score [9] was -1.32. It also gave an interaction score [10] of -1.95 and an interaction score [11] of -1.68.

Work on DENAALEAKDAALKAKNAALKAEIAALEG [P5-AA-1HAA-D] yielded an interaction score [12] of -1.42, an interaction score [13] of -1.72 and an interaction score [14] of -0.764. The interaction score [15] was -1.15, the interaction score [16] was -0.571 and the interaction score [11] was -1.12. For the same binder, the interaction score [17] was -1.35, the interaction score [18] was -1.34 and the interaction score [19] was -1.02. The interaction score ([20]; mean of both orientations) was 0.68 and the interaction score [21] was -0.724.

With DENAALEAKKAALKAKNAALKAEIAALEG [P5-AA-1HAA-K] the interaction score [12] was -0.814, the interaction score [13] was -0.501 and the interaction score [14] was -0.889. For the same binder, the interaction score [15] was -0.653, the interaction score [16] was 1.84 and the interaction score [11] was 1.41. The interaction score [17] was -1.3, the interaction score [18] was 0.0853 and the interaction score [19] was 1.53. It also gave an interaction score ([20]; mean of both orientations) of 2.05 and an interaction score ([21]; mean of both orientations) of 0.0221.

DENAALEAKEAALKAKEAALKAEIAALEG [P5-AA-12HAA-E] showed an interaction score [1] of -1.48, an interaction score [2] of -1.42 and an interaction score [3] of -1.89. It also gave an interaction score ([4]; mean of both orientations) of -2.37, an interaction score [5] of -0.949 and an interaction score [6] of -2.01. It also gave an interaction score ([7]; mean of both orientations) of -1.39, an interaction score ([8]; mean of both orientations) of -1.32 and an interaction score [9] of 0.123. It also gave an interaction score ([10]; mean of both orientations) of -1.59 and an interaction score [11] of -1.74.

DENAALEAKRAALKAKRAALKAEIAALEG [P5-AA-12HAA-R] gave an interaction score [1] of -1.88, an interaction score [2] of -1.43 and an interaction score [3] of -1.83. The interaction score ([4]; mean of both orientations) was -1.69, the interaction score [5] was 1.4 and the interaction score [6] was -1.5. For the same binder, the interaction score ([7]; mean of both orientations) was -1.83, the interaction score ([8]; mean of both orientations) was -0.88 and the interaction score [9] was 2.1. For the same binder, the interaction score ([10]; mean of both orientations) was -1.07 and the interaction score [11] was 0.341.

DENAALEAKTAALKAKTAALKAEIAALEG [P5-AA-12HAA-T] was tested, and the interaction score [1] was -2.09, the interaction score [2] was -1.36 and the interaction score [3] was -1.12. It also gave an interaction score ([4]; mean of both orientations) of -1.33, an interaction score [5] of 1.25 and an interaction score [6] of -1.74. The interaction score ([7]; mean of both orientations) was -1.61, the interaction score ([8]; mean of both orientations) was -1.23 and the interaction score [9] was 1.5. For the same binder, the interaction score ([10]; mean of both orientations) was 0.46 and the interaction score [11] was -1.49.

For DENAALEAKSAALKAKSAALKAEIAALEG [P5-AA-12HAA-S], the interaction score [1] was -1.65, the interaction score [2] was -1.88 and the interaction score [3] was -1.82. For the same binder, the interaction score ([4]; mean of both orientations) was -1.73, the interaction score [5] was 0.323 and the interaction score [6] was -1.81. It also gave an interaction score ([7]; mean of both orientations) of -1.65, an interaction score ([8]; mean of both orientations) of -1.48 and an interaction score [9] of 1.55. It also gave an interaction score ([10]; mean of both orientations) of -0.94 and an interaction score [11] of -1.02.

Binder DENAALEAKAAALKAKNAALKAEIAALEG [P5-AA-1HAA-A] has an interaction score [12] of -1.94, an interaction score [13] of -0.184 and an interaction score [14] of -0.274. The interaction score [15] was -0.453, the interaction score [16] was 1.94 and the interaction score [11] was 0.981. For the same binder, the interaction score [17] was -0.629, the interaction score [18] was -0.02 and the interaction score [19] was 0.325. The interaction score [20] was 2.66 and the interaction score ([21]; mean of both orientations) was 0.845.

In the case of DENAALEAKYAALKAKNAALKAEIAALEG [P5-AA-1HAA-Y], the interaction score [12] is reported as -0.899, the interaction score [13] is reported as -0.129 and the interaction score [14] is reported as -0.1. For the same binder, the interaction score [15] was 0.174, the interaction score [16] was 1.72 and the interaction score [11] was 1.76. For the same binder, the interaction score [17] was -0.286, the interaction score [18] was 1.55 and the interaction score [19] was 1.28. The interaction score ([20]; mean of both orientations) was 1.79 and the interaction score ([21]; mean of both orientations) was 1.34.

Binder DENAALEAKAAALKAKAAALKAEIAALEG [P5-AA-12HAA-A] has an interaction score [1] of -1.63, an interaction score [2] of -1.81 and an interaction score [3] of -1.86. For the same binder, the interaction score [4] was -1.98, the interaction score [5] was 1.96 and the interaction score [6] was -2.54. The interaction score ([7]; mean of both orientations) was -1.71, the interaction score ([8]; mean of both orientations) was -0.646 and the interaction score [9] was 1.95. For the same binder, the interaction score ([10]; mean of both orientations) was -0.289 and the interaction score [11] was -1.39.

DENAALEAKVAALKAKVAALKAEIAALEG [P5-AA-12HAA-V] gave an interaction score [1] of -1.5, an interaction score [2] of 1.61 and an interaction score [3] of 1.34. The interaction score ([4]; mean of both orientations) was 1.73, the interaction score [5] was 2.29 and the interaction score [6] was 1.94. For the same binder, the interaction score ([7]; mean of both orientations) was 1.18, the interaction score ([8]; mean of both orientations) was 1.87 and the interaction score [9] was 2.1. The interaction score ([10]; mean of both orientations) was 1.09 and the interaction score [11] was -0.708.

For DENAALEAKHAALKAKHAALKAEIAALEG [P5-AA-12HAA-H], the interaction score [1] was -1.53, the interaction score [2] was -1.49 and the interaction score [3] was -1.49. It also gave an interaction score ([4]; mean of both orientations) of -1.6, an interaction score [5] of 1.16 and an interaction score [6] of -1.68. For the same binder, the interaction score [7] was -1.37, the interaction score ([8]; mean of both orientations) was -0.831 and the interaction score [9] was 1.55. It also gave an interaction score ([10]; mean of both orientations) of -0.856 and an interaction score [11] of 0.14.

In the case of DENAALEAKKAALKAKKAALKAEIAALEG [P5-AA-12HAA-K], the interaction score [1] is reported as -1.9, the interaction score [2] is reported as -1.48 and the interaction score [3] is reported as -1.46. The interaction score ([4]; mean of both orientations) was -1.5, the interaction score [5] was 1.03 and the interaction score [6] was -1.57. The interaction score [7] was -2.76, the interaction score ([8]; mean of both orientations) was -0.798 and the interaction score [9] was 2.22. The interaction score ([10]; mean of both orientations) was -1.01 and the interaction score [11] was -1.37.
